In US8618251 one finds Fold change in affinity and Kd data, which are given here for 11 substances.

What is called Kd is the concentration at which binding is half-saturated. A high value points to lower affinity.

The target in one experiment is soluble hFcγRIIIA FV (human) (UniProt P08637). The experiment can be described thus: SPR Biacore T100; reference of the fold not given. In general terms: Surface plasmon resonance follows binding to a sensor surface in real time, without labels.
Sequence of soluble hFcγRIIIA FV (human) (P08637 17-208 F176V): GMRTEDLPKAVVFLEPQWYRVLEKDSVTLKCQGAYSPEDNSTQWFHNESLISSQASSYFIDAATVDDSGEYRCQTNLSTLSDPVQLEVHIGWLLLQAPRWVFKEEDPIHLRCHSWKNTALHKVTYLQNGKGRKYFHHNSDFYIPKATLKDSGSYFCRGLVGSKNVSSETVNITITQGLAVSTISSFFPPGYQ
Take 4-4-20 hIgG1 Fc mutant F243I (antibody): the Fold change in affinity was determined as 0.4 fold.

In the case of 4-4-20 hIgG1 Fc mutant K326E (antibody), the Fold change in affinity was 2.9 fold.

Substance “4-4-20 hIgG1 Fc mutant K326E-A339T (antibody)” had a Fold change in affinity of 6.7 fold.

The next experiment deals with C1q (Calbiochem) (UniProt P02745). The experiment can be described thus: SPR Biacore T100; reference of the fold not given.
Sequence of C1q (Calbiochem) (P02745 23-245 limits assumed, chain 1 of 3): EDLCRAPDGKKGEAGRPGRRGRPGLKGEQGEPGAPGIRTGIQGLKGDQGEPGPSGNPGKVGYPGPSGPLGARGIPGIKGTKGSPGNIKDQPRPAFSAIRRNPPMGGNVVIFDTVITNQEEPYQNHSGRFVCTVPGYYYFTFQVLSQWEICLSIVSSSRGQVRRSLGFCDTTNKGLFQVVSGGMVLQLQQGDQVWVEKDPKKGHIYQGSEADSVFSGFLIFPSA
Sequence of C1q (Calbiochem) (P02746 28-253 limits assumed, chain 2 of 3, further chain): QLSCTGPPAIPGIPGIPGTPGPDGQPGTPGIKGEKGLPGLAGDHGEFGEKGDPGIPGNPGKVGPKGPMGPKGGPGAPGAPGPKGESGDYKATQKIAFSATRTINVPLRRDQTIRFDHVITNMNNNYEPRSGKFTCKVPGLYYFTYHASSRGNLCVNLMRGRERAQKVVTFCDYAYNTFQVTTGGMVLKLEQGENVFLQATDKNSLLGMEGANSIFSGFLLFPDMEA
Sequence of C1q (Calbiochem) (P02747 29-245 limits assumed, chain 3 of 3, further chain): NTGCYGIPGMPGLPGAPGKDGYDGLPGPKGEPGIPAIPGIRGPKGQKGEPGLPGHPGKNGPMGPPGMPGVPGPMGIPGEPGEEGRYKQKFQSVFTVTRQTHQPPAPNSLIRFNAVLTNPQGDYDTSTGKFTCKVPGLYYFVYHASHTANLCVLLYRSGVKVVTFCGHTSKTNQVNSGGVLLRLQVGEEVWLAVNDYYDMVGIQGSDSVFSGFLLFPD
Consider 4-4-20 hIgG1 Fc mutant K326E (antibody), for which the Fold change in affinity is 2.2 fold.

Consider “4-4-20 hIgG1 Fc mutant K326E-A339T (antibody)”, for which the Fold change in affinity is 3.8 fold.

For the next experiment, the target named is soluble hFcγRIIA^131H (human) (UniProt P12318). The experiment in a line: SPR Biacore T100; reference of the fold not given.
Sequence of soluble hFcγRIIA^131H (human) (P12318 34-217): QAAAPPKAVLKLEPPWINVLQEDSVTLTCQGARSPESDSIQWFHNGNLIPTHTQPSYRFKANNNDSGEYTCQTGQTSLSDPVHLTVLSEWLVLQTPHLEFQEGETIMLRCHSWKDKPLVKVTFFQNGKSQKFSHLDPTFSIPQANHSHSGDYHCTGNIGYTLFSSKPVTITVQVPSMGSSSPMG
In the case of 4-4-20 hIgG1 Fc mutant F243I (antibody), the Fold change in affinity is 0.6 fold.

“4-4-20 hIgG1 Fc mutant G236A-F243I-S298G-T299A-I332T (antibody)” yielded a Fold change in affinity of 7.4 fold.

Take 4-4-20 hIgG1 Fc mutant K326E (antibody): the Fold change in affinity is 2.5 fold.

In turn, “4-4-20 hIgG1 Fc mutant K326E-A339T (antibody)” showed a Fold change in affinity of 1.4 fold.

On to 4-4-20 hIgG1 Fc mutant P396L (antibody), for which the Fold change in affinity is 4 fold.

On to 4-4-20 hIgG1 Fc mutant S298G (antibody), for which the Fold change in affinity was determined as 0.3 fold.

“4-4-20 hIgG1 Fc mutant S298G-T299A (antibody)”: the Fold change in affinity amounted to 0.8 fold.

The substance 4-4-20 hIgG1 Fc mutant T394P (antibody) returned a Fold change in affinity of 0.5 fold.

Regarding “4-4-20 hIgG1 Fc mutant V211A-F243L-K326E-D399V (antibody)”, the Fold change in affinity is 0.6 fold.

In a further experiment the target is soluble hFcγRIIB (human) (UniProt P31994). The experiment can be described thus: SPR Biacore T100; reference of the fold not given.
Sequence of soluble hFcγRIIB (human) (P31994 43-217 limits assumed): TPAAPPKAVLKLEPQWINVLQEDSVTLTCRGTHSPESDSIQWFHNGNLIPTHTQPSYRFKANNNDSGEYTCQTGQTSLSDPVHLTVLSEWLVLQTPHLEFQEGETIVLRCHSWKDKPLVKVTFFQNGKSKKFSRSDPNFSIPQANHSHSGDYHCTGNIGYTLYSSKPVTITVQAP
Take 4-4-20 hIgG1 Fc mutant F243I (antibody): the Fold change in affinity came to 0.9 fold.

4-4-20 hIgG1 Fc mutant K326E (antibody) registered a Fold change in affinity of 3.5 fold.

Take “4-4-20 hIgG1 Fc mutant K326E-A339T (antibody)”: the Fold change in affinity came to 9.3 fold.

With “4-4-20 hIgG1 Fc mutant S298G-T299A (antibody)”, the Fold change in affinity is 1.7 fold.

4-4-20 hIgG1 Fc mutant T394P (antibody) registered a Fold change in affinity of 1.1 fold.

“4-4-20 hIgG1 Fc mutant V211A-F243L-K326E-D399V (antibody)” registered a Fold change in affinity of 4 fold.

Another experiment concerns the target soluble hFcγRIIIA FF (human) (UniProt P08637). The experiment in a line: SPR Biacore T100; reference of the fold not given.
Substance 4-4-20 hIgG1 Fc mutant F243I (antibody) had a Fold change in affinity of 1.4 fold.

The next experiment concerns the target soluble hFcγRIIA^131R (human) (UniProt P12318). The experiment in a line: SPR Biacore T100; reference of the fold not given.
In the case of 4-4-20 hIgG1 Fc mutant F243I (antibody), the Fold change in affinity stood at 0.9 fold.

“4-4-20 hIgG1 Fc mutant G236A-F243I-S298G-T299A-I332T (antibody)”: the Fold change in affinity turned out to be 18.5 fold.

In turn, 4-4-20 hIgG1 Fc mutant K326E (antibody) gave a Fold change in affinity of 8.7 fold.

“4-4-20 hIgG1 Fc mutant K326E-A339T (antibody)” registered a Fold change in affinity of 8.7 fold.

With 4-4-20 hIgG1 Fc mutant P396L (antibody), the Fold change in affinity amounted to 1.8 fold.

For 4-4-20 hIgG1 Fc mutant S298G (antibody), the Fold change in affinity stood at 0.6 fold.

Turning to “4-4-20 hIgG1 Fc mutant S298G-T299A (antibody)”, the Fold change in affinity turned out to be 3 fold.

As to 4-4-20 hIgG1 Fc mutant T394P (antibody), the Fold change in affinity was 1 fold.

Substance “4-4-20 hIgG1 Fc mutant V211A-F243L-K326E-D399V (antibody)” came in with a Fold change in affinity of 6.1 fold.

Another experiment deals with soluble hFcγRIIIA FV (human) (UniProt P08637). The experiment in a line: SPR Biacore T100, steady state, antibody immobilised.
4-4-20 hIgG1 Fc mutant F243I (antibody): the Kd was found to be 7.05 µM.

Turning to 4-4-20 hIgG1 Fc mutant I332T (antibody), the Kd came to 2.61 µM.

4-4-20 hIgG1 Fc mutant K326E (antibody) had a Kd of 0.567 µM.

As to “4-4-20 hIgG1 Fc mutant K326E-A339T (antibody)”, the Kd was 0.528 µM.

Substance “4-4-20 hIgG1 Fc mutant P247L-M252L-V266L-Y278F-V302E-S354T (antibody)” registered a Kd of 3.07 µM.

In the case of “4-4-20 hIgG1 Fc mutant V211A-F243L-K326E-D399V (antibody)”, the Kd was determined as 3.43 µM.

Another experiment has as its target C1q (Calbiochem) (UniProt P02745). The description is as above.
4-4-20 hIgG1 Fc mutant F243I (antibody) returned a Kd of 0.0955 µM.

For the substance 4-4-20 hIgG1 Fc mutant I332T (antibody), the Kd came out at 0.0355 µM.

4-4-20 hIgG1 Fc mutant K326E (antibody) showed a Kd of 0.0633 µM.

Turning to “4-4-20 hIgG1 Fc mutant K326E-A339T (antibody)”, the Kd came out at 0.129 µM.

In a further experiment the target is soluble hFcγRIIA^131H (human) (UniProt P12318). The experiment is described as above.
4-4-20 hIgG1 Fc mutant F243I (antibody) had an equilibrium dissociation constant (Kd) of 5.6 µM.

As for “4-4-20 hIgG1 Fc mutant G236A-F243I-S298G-T299A-I332T (antibody)”, the Kd turned out to be 0.463 µM.

Consider 4-4-20 hIgG1 Fc mutant I332T (antibody), for which the Kd was 0.903 µM.

In turn, 4-4-20 hIgG1 Fc mutant K326E (antibody) yielded a Kd of 1.34 µM.

“4-4-20 hIgG1 Fc mutant K326E-A339T (antibody)”: the Kd was determined as 3.18 µM.

On to 4-4-20 hIgG1 Fc mutant P396L (antibody), for which the dissociation constant Kd was 0.766 µM.

As for 4-4-20 hIgG1 Fc mutant S298G (antibody), the Kd was 12.9 µM.

Take “4-4-20 hIgG1 Fc mutant S298G-T299A (antibody)”: the dissociation constant (Kd) was 7 µM.

In turn, 4-4-20 hIgG1 Fc mutant T394P (antibody) returned a Kd of 5.94 µM.

“4-4-20 hIgG1 Fc mutant V211A-F243L-K326E-D399V (antibody)” returned a Kd of 7.16 µM.

A further experiment has as its target soluble hFcγRIIB (human) (UniProt P31994). The experiment is described as above.
In the case of 4-4-20 hIgG1 Fc mutant F243I (antibody), the Kd came to 11.8 µM.

Regarding “4-4-20 hIgG1 Fc mutant G236A-F243I-S298G-T299A-I332T (antibody)”, the Kd is 5.34 µM.

The substance 4-4-20 hIgG1 Fc mutant I332T (antibody) had a Kd of 8.54 µM.

Regarding “4-4-20 hIgG1 Fc mutant K326E-A339T (antibody)”, the Kd came out at 2.63 µM.

“4-4-20 hIgG1 Fc mutant P247L-M252L-V266L-Y278F-V302E-S354T (antibody)” displayed a Kd of 0.785 µM.

The substance 4-4-20 hIgG1 Fc mutant P396L (antibody) displayed a Kd of 6.04 µM.

Take “4-4-20 hIgG1 Fc mutant S298G-T299A (antibody)”: the Kd is 5.68 µM.

4-4-20 hIgG1 Fc mutant T394P (antibody): the equilibrium dissociation constant (Kd) is 10.8 µM.

Turning to “4-4-20 hIgG1 Fc mutant V211A-F243L-K326E-D399V (antibody)”, the dissociation constant Kd stood at 6.12 µM.

The target of the next experiment is soluble hFcγRIIIA FF (human) (UniProt P08637). The description is as above.
4-4-20 hIgG1 Fc mutant F243I (antibody) had a Kd of 9.93 µM.

With 4-4-20 hIgG1 Fc mutant I332T (antibody), the Kd came to 10.6 µM.

The substance 4-4-20 hIgG1 Fc mutant K326E (antibody) gave a Kd of 7.25 µM.

The next experiment deals with soluble hFcγRIIA^131R (human) (UniProt P12318). The description is as above.
Sequence of soluble hFcγRIIA^131R (human) (P12318 34-217 H167R): as the sequence (P12318 34-217) above, with H134R counted along it
With 4-4-20 hIgG1 Fc mutant F243I (antibody), the Kd was 7.72 µM.

For the substance “4-4-20 hIgG1 Fc mutant G236A-F243I-S298G-T299A-I332T (antibody)”, the Kd is 0.312 µM.

For 4-4-20 hIgG1 Fc mutant K326E (antibody), the Kd worked out at 0.838 µM.

“4-4-20 hIgG1 Fc mutant K326E-A339T (antibody)” yielded a dissociation constant Kd of 0.548 µM.

On to “4-4-20 hIgG1 Fc mutant P247L-M252L-V266L-Y278F-V302E-S354T (antibody)”, for which the Kd is 0.523 µM.

As for 4-4-20 hIgG1 Fc mutant P396L (antibody), the Kd is 4.88 µM.

Substance 4-4-20 hIgG1 Fc mutant S298G (antibody) gave a Kd of 10.6 µM.

With “4-4-20 hIgG1 Fc mutant S298G-T299A (antibody)”, the Kd was 1.69 µM.

With 4-4-20 hIgG1 Fc mutant T394P (antibody), the Kd was 8.7 µM.

In turn, “4-4-20 hIgG1 Fc mutant V211A-F243L-K326E-D399V (antibody)” yielded a Kd of 0.778 µM.
